Target: HCV E1-E2 protein complex of hepatitis C virus isolate H77 (genotype 1a), expressed from plasmid pcDNA3.1-E1E2 (hepatitis C virus isolate H77 (genotype 1a)) (UniProt P27958)
Experiment: cell-based or functional assay

Q: Which Degree of inhibition (times) does the source give for “fully human monoclonal antibody Adalimumab (brand name Humira)” here?
A: 1.09 times

Q: And the Infection effectiveness (percentage of fluorescent cells)?
A: 58.1%
